In publication PMC5928161 one finds other: relative signal intensity data, which are given here for four substances.

For the assay, the target named is FLAG-tagged a3 isoform of the V-ATPase a subunit (mouse) (UniProt Q9JHF5). Briefly: co-immunoprecipitation (anti-FLAG IP, anti-V5 Western blot). Particulars: HEK293T cells; intensity of V5-fused GTP-binding protein co-precipitated with a3 normalised to that of V5-Rab7.
UniProt Q9JHF5, sequence (Q9JHF5 entry or part of it): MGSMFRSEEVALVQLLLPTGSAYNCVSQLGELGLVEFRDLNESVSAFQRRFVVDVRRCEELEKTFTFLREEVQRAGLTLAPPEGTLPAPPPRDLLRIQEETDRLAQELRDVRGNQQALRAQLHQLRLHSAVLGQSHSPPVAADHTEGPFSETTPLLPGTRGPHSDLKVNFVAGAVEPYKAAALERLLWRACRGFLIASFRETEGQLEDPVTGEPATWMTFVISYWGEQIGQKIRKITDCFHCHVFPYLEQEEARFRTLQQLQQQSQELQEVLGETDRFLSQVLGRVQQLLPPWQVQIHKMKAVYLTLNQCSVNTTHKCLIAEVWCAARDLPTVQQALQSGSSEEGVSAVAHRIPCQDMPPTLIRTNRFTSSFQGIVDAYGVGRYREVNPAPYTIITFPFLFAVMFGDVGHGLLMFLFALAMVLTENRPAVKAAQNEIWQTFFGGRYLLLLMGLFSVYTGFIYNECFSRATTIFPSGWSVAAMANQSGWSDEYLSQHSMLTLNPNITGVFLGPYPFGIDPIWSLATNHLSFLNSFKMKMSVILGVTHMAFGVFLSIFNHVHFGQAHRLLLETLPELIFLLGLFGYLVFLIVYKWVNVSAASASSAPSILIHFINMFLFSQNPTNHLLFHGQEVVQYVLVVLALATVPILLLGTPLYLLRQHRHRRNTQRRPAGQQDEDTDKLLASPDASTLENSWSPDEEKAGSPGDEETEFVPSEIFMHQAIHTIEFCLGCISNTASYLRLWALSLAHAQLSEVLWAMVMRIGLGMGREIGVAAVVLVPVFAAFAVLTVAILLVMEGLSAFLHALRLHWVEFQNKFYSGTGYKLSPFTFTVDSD

Ran W D (substitution not printed) had an other: relative signal intensity below 0.1.
As for Ran W C (substitution not printed), the other: relative signal intensity is below 0.1.
As for H-Ras W C (substitution not printed), the other: relative signal intensity is below 0.1.
H-Ras W D (substitution not printed) came in with an other: relative signal intensity below 0.1.
